Assays:
[1] = target: T1, Bacillus anthracis protective antigen (PA) (Bacillus anthracis, UniProt P13423 30-764); assay: SPR (BIACore 3000), PA on CM5 chip
[2] = target: T1, Bacillus anthracis protective antigen …; assay: SPR, purified scAb on immobilized PA ('Affinity Measurements of Purified scAb')
[3] = target: T1, Bacillus anthracis protective antigen …; assay: SPR (BIACore 3000)
[4] = target: T1, Bacillus anthracis protective antigen …; assay: SPR (BIACore 3000), PA on CM5 chip, scAb in solution
[5] = target: T1, Bacillus anthracis protective antigen …

T1 sequence (P13423 30-764 limits assumed): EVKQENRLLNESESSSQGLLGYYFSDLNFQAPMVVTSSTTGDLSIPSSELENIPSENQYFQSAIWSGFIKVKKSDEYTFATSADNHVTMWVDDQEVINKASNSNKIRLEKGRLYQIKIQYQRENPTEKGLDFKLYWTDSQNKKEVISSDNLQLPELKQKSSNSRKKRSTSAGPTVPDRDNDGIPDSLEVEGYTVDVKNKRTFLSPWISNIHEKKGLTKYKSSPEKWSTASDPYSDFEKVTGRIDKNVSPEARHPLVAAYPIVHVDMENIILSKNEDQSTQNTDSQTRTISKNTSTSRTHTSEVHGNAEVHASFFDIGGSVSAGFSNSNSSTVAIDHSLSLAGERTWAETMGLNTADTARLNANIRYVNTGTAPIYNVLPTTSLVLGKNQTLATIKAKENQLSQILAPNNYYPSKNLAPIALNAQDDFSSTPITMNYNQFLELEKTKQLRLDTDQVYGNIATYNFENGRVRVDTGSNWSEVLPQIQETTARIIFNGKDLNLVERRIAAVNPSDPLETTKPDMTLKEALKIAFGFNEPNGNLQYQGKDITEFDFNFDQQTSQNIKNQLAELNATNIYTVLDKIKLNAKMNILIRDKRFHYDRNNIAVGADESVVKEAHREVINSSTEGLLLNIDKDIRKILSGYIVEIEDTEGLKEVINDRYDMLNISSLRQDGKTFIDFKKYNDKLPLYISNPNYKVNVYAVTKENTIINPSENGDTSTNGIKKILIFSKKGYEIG

B1: 14B7 scAb (scFv)
chain: DIQMTQTTSSLSASLGDRVTISCRASQDIRNYLNWYQQKPDGTVKLLIYYTSRLQSGVPSRFSGSGSGTDYSLTISNQEQEDIGTYFCQQGNTLPWTFGGGTKLEIKRGGGGSGGGGSGGGGSGGGGSEVQLQQSGPELVKPGASVKISCKDSGYAFSSSWMNWVKQRPGQGLEWIGRIYPGDGDTNYNGKFKGKATLTADKSSSTAYMQLSSLTSVDSAVYFCARSGLLRYAMDYWGQGTSVTVSS
B1 gave a Kd [1] of 4.3 nM, a koff [2] of 0.003 s⁻¹ and a kon [2] of 710000 M⁻¹ s⁻¹.

B2: M18 scAb (scFv)
chain: DIQMTQTTSSLSASLGDRVTVSCRASQDIRNYLNWYQQKPDGTVKFLIYYTSRLQPGVPSRFSGSGSGTDYSLTINNLEQEDIGTYFCQQGNTPPWTFGGGTKLEIKRGGGGSDGGGSGGGGSGGGGSEVQLQQSGPELVKPGASVKISCKDSGYAFNSSWMNWVKQRPGQGLEWIGRIYPGDGDSNYNGKFEGKAILTADKSSSTAYMQLSSLTSVDSAVYFCARSGLLRYAMDYWGQGTSVTVSS
B2 was tested, and the “fold affinity improvement compared to the parental antibody 14B7” value [3] was greater than 120 fold, the Kd [4] was 0.035 nM and the koff [4] was 4.2e-05 s⁻¹. The kon [2] was 1.2e+06 M⁻¹ s⁻¹.

B3: NlpA-[14B7 scFv] (scFv)
scFv: CDQSSSDIQMTQTTSSLSASLGDRVTISCRASQDIRNYLNWYQQKPDGTVKLLIYYTSRLQSGVPSRFSGSGSGTDYSLTISNQEQEDIGTYFCQQGNTLPWTFGGGTKLEIKRGGGGSGGGGSGGGGSGGGGSEVQLQQSGPELVKPGASVKISCKDSGYAFSSSWMNWVKQRPGQGLEWIGRIYPGDGDTNYNGKFKGKATLTADKSSSTAYMQLSSLTSVDSAVYFCARSGLLRYAMDYWGQGTSVTVSS
For B3, the “fold higher mean fluorescence intensity compared to controls” value [5] was roughly 9 fold.
